Like-named read-outs stand apart in the source and are kept apart here.
B1: his pause ePEC scaffold (RNA-7604, tDNA 5420, ntDNA 5069) (mixed)
RNA: UCAUCCGGCGAUGUGUGCU
DNA 1: CTCTGAATCTCTTCCAGCACACATCAGGACGTACTGACC
DNA 2: GGTCAGTACGTCCATTCGATCTTCGGAAGAGATTCAGAG
modifications: pyrrolo-cytosine at RNA nt 5 (Z in the printed sequence)
B2: his pause ePEC scaffold + 8mer asRNA (RNA-6598) (mixed)
RNA 1: UCAUCCGGCGAUGUGUGCU
DNA 1: B1 DNA 1
DNA 2: B1 DNA 2
RNA 2: CCGGAUGA
modifications: pyrrolo-cytosine at RNA nt 5 (Z in the printed sequence)

What was measured:
[1] = biological target: T1, E. coli core RNA polymerase (wild-type) (Escherichia coli, UniProt P0A7Z4;P0A8V2;P0A8T7;P0A800 1-329;1-1342;1-1407;1-91); assay: EMSA
[2] = biological target: T1, E. coli core RNA polymerase (wild-type); assay: EMSA; remark: listed apart in the source

T1 sequence (P0A7Z4 whole entry, chain 1 of 3): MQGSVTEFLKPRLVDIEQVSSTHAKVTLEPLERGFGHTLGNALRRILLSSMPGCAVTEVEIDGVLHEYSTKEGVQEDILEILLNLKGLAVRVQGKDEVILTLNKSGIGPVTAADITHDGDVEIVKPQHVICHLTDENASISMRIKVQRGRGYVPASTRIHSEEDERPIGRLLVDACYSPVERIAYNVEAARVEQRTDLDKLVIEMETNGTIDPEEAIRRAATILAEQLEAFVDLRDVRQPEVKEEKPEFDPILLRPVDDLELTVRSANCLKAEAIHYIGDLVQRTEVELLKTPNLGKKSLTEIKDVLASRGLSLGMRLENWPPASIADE
T1 sequence (P0A8V2 whole entry, chain 2 of 3): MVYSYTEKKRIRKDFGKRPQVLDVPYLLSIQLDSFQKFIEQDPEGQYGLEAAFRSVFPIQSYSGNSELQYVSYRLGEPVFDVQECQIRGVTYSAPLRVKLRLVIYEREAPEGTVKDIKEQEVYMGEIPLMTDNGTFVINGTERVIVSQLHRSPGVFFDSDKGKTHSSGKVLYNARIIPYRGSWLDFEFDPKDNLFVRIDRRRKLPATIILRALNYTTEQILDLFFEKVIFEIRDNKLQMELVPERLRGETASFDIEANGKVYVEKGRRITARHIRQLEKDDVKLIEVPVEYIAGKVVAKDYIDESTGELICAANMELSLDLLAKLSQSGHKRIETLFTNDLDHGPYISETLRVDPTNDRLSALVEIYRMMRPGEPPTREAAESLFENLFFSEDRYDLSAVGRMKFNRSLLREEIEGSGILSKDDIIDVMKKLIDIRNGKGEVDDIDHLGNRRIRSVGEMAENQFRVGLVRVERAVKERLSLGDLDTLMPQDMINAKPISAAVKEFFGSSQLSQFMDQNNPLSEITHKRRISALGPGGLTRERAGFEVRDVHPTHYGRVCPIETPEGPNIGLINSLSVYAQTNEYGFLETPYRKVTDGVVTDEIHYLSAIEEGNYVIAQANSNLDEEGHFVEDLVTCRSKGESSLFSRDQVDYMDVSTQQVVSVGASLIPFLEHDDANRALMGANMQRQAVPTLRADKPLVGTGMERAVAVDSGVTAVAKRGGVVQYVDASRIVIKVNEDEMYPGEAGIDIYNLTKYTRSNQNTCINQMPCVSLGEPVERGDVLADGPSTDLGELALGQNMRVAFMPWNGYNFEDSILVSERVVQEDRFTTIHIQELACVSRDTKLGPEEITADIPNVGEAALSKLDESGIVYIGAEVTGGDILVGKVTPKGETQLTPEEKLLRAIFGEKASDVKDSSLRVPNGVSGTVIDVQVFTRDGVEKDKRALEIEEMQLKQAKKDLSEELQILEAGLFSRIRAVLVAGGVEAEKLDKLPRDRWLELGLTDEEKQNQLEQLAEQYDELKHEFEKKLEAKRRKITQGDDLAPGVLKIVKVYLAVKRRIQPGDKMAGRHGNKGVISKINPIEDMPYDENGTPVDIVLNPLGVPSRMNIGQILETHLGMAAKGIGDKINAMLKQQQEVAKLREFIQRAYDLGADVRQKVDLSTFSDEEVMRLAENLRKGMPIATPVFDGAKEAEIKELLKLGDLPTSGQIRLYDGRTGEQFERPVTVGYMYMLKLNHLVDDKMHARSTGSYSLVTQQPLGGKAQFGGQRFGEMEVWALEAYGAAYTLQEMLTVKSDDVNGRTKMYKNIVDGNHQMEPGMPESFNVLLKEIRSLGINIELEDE
T1 sequence (P0A800 whole entry, chain 4 of 3): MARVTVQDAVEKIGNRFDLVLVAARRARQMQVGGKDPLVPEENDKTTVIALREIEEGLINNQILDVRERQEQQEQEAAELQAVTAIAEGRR

Binder	binding result [1]	binding result [2]
B1	binds	–
B2	–	binds
